Data on 19 molecules can be found in US20240108738A1 (Bicycle, published 2024).

Numbered stars: 1 amine (or outer) side, 2 acyl side, 3 side chain; on linkers, the order of the positions; unused ones are H or OH. Bridge positions count the residues as written; N and C are the ends. Square brackets hold non-standard residues; d marks the D form. Ends that are not written are not given here. TATA = O=C(CC[*:1])N1CN(C(=O)CC[*:2])CN(C(=O)CC[*:3])C1; Trp(5-F) = N[C@@H](Cc1c[nH]c2ccc(F)cc12)C(=O)O; Trp(6-F) = N[C@@H](Cc1c[nH]c2cc(F)ccc12)C(=O)O; Trp(6-Me) = Cc1ccc2c(C[C@H](N)C(=O)O)c[nH]c2c1; Trp(7-Me) = Cc1cccc2c(C[C@H](N)C(=O)O)c[nH]c12; Trp(2-Me) = Cc1[nH]c2ccccc2c1C[C@H](N)C(=O)O; Ala(2-furyl) = N[C@@H](Cc1ccco1)C(=O)O; Nva(3-Et) = CCC(CC)[C@H](N)C(=O)O; aIle = CC[C@@H](C)[C@H](N)C(=O)O; Cba = N[C@@H](CC1CCC1)C(=O)O; Pen = CC(C)(S)[C@H](N)C(=O)O; Pip = O=C(O)[C@@H]1CCCCN1; Nle = CCCC[C@H](N)C(=O)O; Nva = CCC[C@H](N)C(=O)O; Dap = NC[C@H](N)C(=O)O; Aib = CC(C)(N)C(=O)O; GABA = NCCCC(=O)O

The labels stand for the following.
B1: BCY19725 (peptide)
peptide: ACDLTTHNCQ[Trp(5-F)]GICA-NH2
modifications: linker 2-9-14 via TATA
notes: scaffold TATA
B2: BCY19706 (peptide)
peptide: ACNLQAPCMLTGK[aIle]CA-NH2
modifications: linker 2-8-15 via TATA; N-terminus assumed
SMILES: CC[C@@H](C)[C@@H]1NC(=O)[C@H](CCCCN)NC(=O)CNC(=O)[C@H]([C@@H](C)O)NC(=O)[C@H](CC(C)C)NC(=O)[C@H](CCSC)NC(=O)[C@@H]2CSCCC(=O)N3CN(CN(C3)C(=O)CCSC[C@@H](C(=O)N[C@@H](C)C(N)=O)NC1=O)C(=O)CCSC[C@H](NC(=O)[C@H](C)N)C(=O)N[C@@H](CC(N)=O)C(=O)N[C@@H](CC(C)C)C(=O)N[C@@H](CCC(N)=O)C(=O)N[C@@H](C)C(=O)N1CCC[C@H]1C(=O)N2
notes: scaffold TATA
B3: BCY19721 (peptide)
peptide: ACDLTTHNCQ[Trp(2-Me)]GICA-NH2
modifications: linker 2-9-14 via TATA
notes: scaffold TATA
B4: BCY19697 (peptide)
peptide: [Dap]CNLQAPCMLTGKVCA-NH2
modifications: linker 2-8-15 via TATA; N-terminus assumed
SMILES: CSCC[C@@H]1NC(=O)[C@@H]2CSCCC(=O)N3CN(CN(C3)C(=O)CCSC[C@H](NC(=O)[C@@H](N)CN)C(=O)N[C@@H](CC(N)=O)C(=O)N[C@@H](CC(C)C)C(=O)N[C@@H](CCC(N)=O)C(=O)N[C@@H](C)C(=O)N3CCC[C@H]3C(=O)N2)C(=O)CCSC[C@@H](C(=O)N[C@@H](C)C(N)=O)NC(=O)[C@H](C(C)C)NC(=O)[C@H](CCCCN)NC(=O)CNC(=O)[C@H]([C@@H](C)O)NC(=O)[C@H](CC(C)C)NC1=O
notes: scaffold TATA
B5: BCY19699 (peptide)
peptide: [GABA]CNLQAPCMLTGKVCA-NH2
modifications: linker 2-8-15 via TATA
notes: scaffold TATA
B6: BCY19733 (peptide)
peptide: ACDLTTHNCQWG[Nva(3-Et)]CA-NH2
modifications: linker 2-9-14 via TATA; N-terminus assumed
SMILES: CCC(CC)[C@@H]1NC(=O)CNC(=O)[C@H](Cc2c[nH]c3ccccc23)NC(=O)[C@H](CCC(N)=O)NC(=O)[C@@H]2CSCCC(=O)N3CN(CN(C3)C(=O)CCSC[C@@H](C(=O)N[C@@H](C)C(N)=O)NC1=O)C(=O)CCSC[C@H](NC(=O)[C@H](C)N)C(=O)N[C@@H](CC(=O)O)C(=O)N[C@@H](CC(C)C)C(=O)N[C@@H]([C@@H](C)O)C(=O)N[C@@H]([C@@H](C)O)C(=O)N[C@@H](Cc1c[nH]cn1)C(=O)N[C@@H](CC(N)=O)C(=O)N2
notes: scaffold TATA
B7: BCY19732 (peptide)
peptide: ACDLTT[Ala(2-furyl)]NCQWGICA-NH2
modifications: linker 2-9-14 via TATA; N-terminus assumed
SMILES: CC[C@H](C)[C@@H]1NC(=O)CNC(=O)[C@H](Cc2c[nH]c3ccccc23)NC(=O)[C@H](CCC(N)=O)NC(=O)[C@@H]2CSCCC(=O)N3CN(CN(C3)C(=O)CCSC[C@@H](C(=O)N[C@@H](C)C(N)=O)NC1=O)C(=O)CCSC[C@H](NC(=O)[C@H](C)N)C(=O)N[C@@H](CC(=O)O)C(=O)N[C@@H](CC(C)C)C(=O)N[C@@H]([C@@H](C)O)C(=O)N[C@@H]([C@@H](C)O)C(=O)N[C@@H](Cc1ccco1)C(=O)N[C@@H](CC(N)=O)C(=O)N2
notes: scaffold TATA
B8: BCY19701 (peptide)
peptide: ACNLQA[Pip]CMLTGKVCA-NH2
modifications: linker 2-8-15 via TATA; N-terminus assumed
SMILES: CSCC[C@@H]1NC(=O)[C@@H]2CSCCC(=O)N3CN(CN(C3)C(=O)CCSC[C@@H](C(=O)N[C@@H](C)C(N)=O)NC(=O)[C@H](C(C)C)NC(=O)[C@H](CCCCN)NC(=O)CNC(=O)[C@H]([C@@H](C)O)NC(=O)[C@H](CC(C)C)NC1=O)C(=O)CCSC[C@H](NC(=O)[C@H](C)N)C(=O)N[C@@H](CC(N)=O)C(=O)N[C@@H](CC(C)C)C(=O)N[C@@H](CCC(N)=O)C(=O)N[C@@H](C)C(=O)N1CCCC[C@H]1C(=O)N2
notes: scaffold TATA
B9: BCY19722 (peptide)
peptide: ACDLTTHNCQ[Trp(6-Me)]GICA-NH2
modifications: linker 2-9-14 via TATA; N-terminus assumed
SMILES: CC[C@H](C)[C@@H]1NC(=O)CNC(=O)[C@H](Cc2c[nH]c3cc(C)ccc23)NC(=O)[C@H](CCC(N)=O)NC(=O)[C@@H]2CSCCC(=O)N3CN(CN(C3)C(=O)CCSC[C@@H](C(=O)N[C@@H](C)C(N)=O)NC1=O)C(=O)CCSC[C@H](NC(=O)[C@H](C)N)C(=O)N[C@@H](CC(=O)O)C(=O)N[C@@H](CC(C)C)C(=O)N[C@@H]([C@@H](C)O)C(=O)N[C@@H]([C@@H](C)O)C(=O)N[C@@H](Cc1c[nH]cn1)C(=O)N[C@@H](CC(N)=O)C(=O)N2
notes: scaffold TATA
B10: BCY19703 (peptide)
peptide: ACNLQAPCM[Nle]TGKVCA-NH2
modifications: linker 2-8-15 via TATA
notes: scaffold TATA
B11: BCY19689 (peptide)
peptide: Ac-[Pen]Y[Cba]PDYLC[dA]DEYC-NH2
modifications: linker 1-8-13 via TATA
SMILES: CC(=O)N[C@@H]1C(=O)N[C@@H](Cc2ccc(O)cc2)C(=O)N[C@@H](CC2CCC2)C(=O)N2CCC[C@H]2C(=O)N[C@@H](CC(=O)O)C(=O)N[C@@H](Cc2ccc(O)cc2)C(=O)N[C@@H](CC(C)C)C(=O)N[C@H]2CSCCC(=O)N3CN(CN(C3)C(=O)CCSC1(C)C)C(=O)CCSC[C@@H](C(N)=O)NC(=O)[C@H](Cc1ccc(O)cc1)NC(=O)[C@H](CCC(=O)O)NC(=O)[C@H](CC(=O)O)NC(=O)[C@@H](C)NC2=O
notes: scaffold TATA
B12: BCY19693 (peptide)
peptide: Ac-[dC]Y[Cba]PDYLC[dA]DEYC-NH2
modifications: linker 1-8-13 via TATA
notes: scaffold TATA
B13: BCY19717 (peptide)
peptide: ACDLTTHNCQWGIC[Aib]-NH2
modifications: linker 2-9-14 via TATA
notes: scaffold TATA
B14: BCY19710 (peptide)
peptide: ACNLQA[Nva]CMLTGKVCA-NH2
modifications: linker 2-8-15 via TATA; N-terminus assumed
SMILES: CCC[C@@H]1NC(=O)[C@H](C)NC(=O)[C@H](CCC(N)=O)NC(=O)[C@H](CC(C)C)NC(=O)[C@H](CC(N)=O)NC(=O)[C@@H](NC(=O)[C@H](C)N)CSCCC(=O)N2CN3CN(C2)C(=O)CCSC[C@@H](C(=O)N[C@@H](C)C(N)=O)NC(=O)[C@H](C(C)C)NC(=O)[C@H](CCCCN)NC(=O)CNC(=O)[C@H]([C@@H](C)O)NC(=O)[C@H](CC(C)C)NC(=O)[C@H](CCSC)NC(=O)[C@H](CSCCC3=O)NC1=O
notes: scaffold TATA
B15: BCY19707 (peptide)
peptide: ACNLQAPCMLTGK[Nva(3-Et)]CA-NH2
modifications: linker 2-8-15 via TATA; N-terminus assumed
SMILES: CCC(CC)[C@@H]1NC(=O)[C@H](CCCCN)NC(=O)CNC(=O)[C@H]([C@@H](C)O)NC(=O)[C@H](CC(C)C)NC(=O)[C@H](CCSC)NC(=O)[C@@H]2CSCCC(=O)N3CN(CN(C3)C(=O)CCSC[C@@H](C(=O)N[C@@H](C)C(N)=O)NC1=O)C(=O)CCSC[C@H](NC(=O)[C@H](C)N)C(=O)N[C@@H](CC(N)=O)C(=O)N[C@@H](CC(C)C)C(=O)N[C@@H](CCC(N)=O)C(=O)N[C@@H](C)C(=O)N1CCC[C@H]1C(=O)N2
notes: scaffold TATA
B16: BCY19704 (peptide)
peptide: ACNLQAPCM[Nva]TGKVCA-NH2
modifications: linker 2-8-15 via TATA; N-terminus assumed
SMILES: CCC[C@@H]1NC(=O)[C@H](CCSC)NC(=O)[C@@H]2CSCCC(=O)N3CN(CN(C3)C(=O)CCSC[C@@H](C(=O)N[C@@H](C)C(N)=O)NC(=O)[C@H](C(C)C)NC(=O)[C@H](CCCCN)NC(=O)CNC(=O)[C@H]([C@@H](C)O)NC1=O)C(=O)CCSC[C@H](NC(=O)[C@H](C)N)C(=O)N[C@@H](CC(N)=O)C(=O)N[C@@H](CC(C)C)C(=O)N[C@@H](CCC(N)=O)C(=O)N[C@@H](C)C(=O)N1CCC[C@H]1C(=O)N2
notes: scaffold TATA
B17: BCY19690 (peptide)
peptide: Ac-CY[Cba]PDYL[Pen][dA]DEYC-NH2
modifications: linker 1-8-13 via TATA
notes: scaffold TATA
B18: BCY19724 (peptide)
peptide: ACDLTTHNCQ[Trp(6-F)]GICA-NH2
modifications: linker 2-9-14 via TATA
notes: scaffold TATA
B19: BCY19723 (peptide)
peptide: ACDLTTHNCQ[Trp(7-Me)]GICA-NH2
modifications: linker 2-9-14 via TATA; N-terminus assumed
SMILES: CC[C@H](C)[C@@H]1NC(=O)CNC(=O)[C@H](Cc2c[nH]c3c(C)cccc23)NC(=O)[C@H](CCC(N)=O)NC(=O)[C@@H]2CSCCC(=O)N3CN(CN(C3)C(=O)CCSC[C@@H](C(=O)N[C@@H](C)C(N)=O)NC1=O)C(=O)CCSC[C@H](NC(=O)[C@H](C)N)C(=O)N[C@@H](CC(=O)O)C(=O)N[C@@H](CC(C)C)C(=O)N[C@@H]([C@@H](C)O)C(=O)N[C@@H]([C@@H](C)O)C(=O)N[C@@H](Cc1c[nH]cn1)C(=O)N[C@@H](CC(N)=O)C(=O)N2
notes: scaffold TATA

The term Kd denotes the equilibrium constant for the complex coming apart. A higher Kd goes with weaker binding.

The experiment deals with T1, Human NKp46 Fc tag (Acro Biosystems, NC1-H5257) (human, UniProt O76036 22-255).
T1 construct: bought; also called Fc-tagged human NKp46
T1 sequence (O76036 22-255 limits assumed): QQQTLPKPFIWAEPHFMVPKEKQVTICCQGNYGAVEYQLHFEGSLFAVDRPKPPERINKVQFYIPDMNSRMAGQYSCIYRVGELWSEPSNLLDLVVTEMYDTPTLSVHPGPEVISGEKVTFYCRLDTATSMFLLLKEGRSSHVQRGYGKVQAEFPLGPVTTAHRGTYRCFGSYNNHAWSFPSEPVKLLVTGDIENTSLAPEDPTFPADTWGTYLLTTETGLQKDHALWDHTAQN
Description: SPR Method 1 and/or 2. The essentials:
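Fc-tagged human NKp46 captured on anti-human IgG surface (500–1000 RU); compounds run in PBS-P+ with 2% DMSO at 25 °C, 50 μL/min, 60 s association, 400 s dissociation. Double-referenced, DMSO-corrected; KD from steady-state 1:1 fit, kinetic constants from kinetic 1:1 fit where appropriate.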
In the case of B1, the Kd is 457 nM.
Take B2: the Kd is 1200 nM.
As for B3, the figure is 374 nM.
For the molecule B4, the equilibrium dissociation constant (Kd) came to 3730 nM.
As for B5, the dissociation constant (Kd) was 2610 nM.
As for B6, the Kd worked out at 354 nM.
Turning to B7, the affinity, expressed as Kd, was 964 nM.
Next, B8: 4030 nM.
B9 had a Kd of 1460 nM.
Molecule B10 displayed a Kd of 1690 nM.
B11 displayed an equilibrium dissociation constant (Kd) of 16 nM.
As for B12, the figure is 17 nM.
For the molecule B13, the dissociation constant (Kd) amounted to 598 nM. Against the preceding molecule, the Kd is about 35-fold higher.
As to B14, the Kd turned out to be 2360 nM. This Kd is about 3.9-fold higher than that of the molecule before.
B15 gave an equilibrium dissociation constant (Kd) of 1050 nM.
Consider B16, for which the equilibrium dissociation constant (Kd) was found to be 1620 nM. Compared with the last molecule, the Kd is about 1.5-fold higher.
For B17, the Kd is 19 nM. This Kd is about 85-fold lower than that of the molecule before.
In the case of B18, binding was characterised by a dissociation constant (Kd) of 1390 nM.
The molecule B19 had an equilibrium dissociation constant (Kd) of 2270 nM. This Kd lies about 1.6-fold higher than the previous one.
